Assay results taken from publication PMC5562754.

What was measured:
[1] = target: PorU (Porphyromonas gingivalis W50 (endogenous in OMVs)); experiment: native gel or EMSA; 2D BN-PAGE (Coomassie, spots identified by MS, densitometry) of large-scale glycerol gradient fractions F15-F17 of 1% DDM-solubilised OMV lysate of WT W50
[2] = target: PorQ (strain ATCC 33277) (Porphyromonas gingivalis ATCC 33277 (endogenous in OMVs)); experiment: native gel or EMSA; conditions: scale: PorZ per PorQ

For PorQ (natural protein), which stoichiometry N ([1]; scale: PorQ per PorU) is on record?
Its stoichiometry N is 1.

How did the stoichiometry N ([1]; scale: PorV per PorU) turn out when PorV (natural protein) was run?
Its stoichiometry N is 3.

For PorZ (natural protein), which stoichiometry N ([1]; scale: PorZ per PorU) is on record?
Its stoichiometry N is 1.

For “PorZ (strain ATCC 33277) (natural protein)”, which stoichiometry N [2] is on record?
Its stoichiometry N is 1.
